The labels stand for the following.
T1: human CD151 protein (human, UniProt P48509 1-253)
T1 construct: whole, on cells; in HT-29 cell lysate in the Western blots; also called PETA-3; SFA-1
T1 sequence (looked up): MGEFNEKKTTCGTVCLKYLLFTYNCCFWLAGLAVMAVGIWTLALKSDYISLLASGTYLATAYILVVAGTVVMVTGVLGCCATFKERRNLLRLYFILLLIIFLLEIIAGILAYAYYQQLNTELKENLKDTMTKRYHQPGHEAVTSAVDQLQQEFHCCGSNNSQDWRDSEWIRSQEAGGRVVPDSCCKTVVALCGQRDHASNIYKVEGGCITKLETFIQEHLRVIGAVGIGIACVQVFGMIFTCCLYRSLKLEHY

T2: recombinant extracellular loop EC2 of human CD151 (amino acids 130 to 221, C-terminal Poly-His tail) (human, UniProt P48509 130-221)
T2 construct: range 130-221; Expressed in soluble form in the periplasm of E. coli from pET22b and purified by IMAC; also called recombinant EC2; recombinant EC2 loop; not shown: Poly-His tail at the C-terminal position
T2 sequence (looked up): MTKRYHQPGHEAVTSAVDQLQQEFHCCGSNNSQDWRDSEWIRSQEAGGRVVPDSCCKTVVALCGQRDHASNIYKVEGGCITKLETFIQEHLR

B1: murine monoclonal antibody 214B2 (hybridoma CNCM I-3919) (antibody, mouse IgG1, V domains shown)
VH: QVQLQQPGSVLVRPGASVKLSCKASGYTFTSSSMHWAKQRPGQGLEWIGEIHPNSGNTNNNEKFKGKATLTVDTSSSTAYVDLSSLSSEDSAVYYCARARSFYYAMDCWGQGTSVTVSS
VL: NIVMTQSPKSMSMSVGERVTLSCKASENVGTYVSWYQQKPEQSPKLLIYGASNRYTGVPDRFTGSGSATDFTLTISSVQAEDLADYHCGQTYSFPYTFGGGTKLEIK
notes: also called 214B2 cl1A; [125I]-214B2
B2: murine monoclonal antibody 203B6 (hybridoma CNCM I-3920) (antibody, mouse IgG1, V domains shown)
VH: EVKLVESGGGLVQPGGSLKLSCAASGFTFSTYTMSWVRQTPEKRLEWVAYISSGGGTTYYPDTVKGRFTISRDNARNTLYLQMNSLKSEDTAMYYCATPRIGTGFAYWGQGTLVTVSA
VL: DIVLSQSPASLALSLGQRATISCRASASVEYYGTSLMHWYQQKPGQPPKLLIYEASNVESGVPARFSGSGSGTDFSLNIHPVEEDDLAIYFCQQSRKAPYTFGGGTKLEIK
notes: also called 203B6 cl1A; [125I]-203B6
B3: murine monoclonal antibody 211F3 (hybridoma CNCM I-3918) (antibody, mouse IgG1, V domains shown)
VH: B2 VH with G10D, G56V, V64I, R76K, Y80F, A97T, T98S, I101T
VL: B2 VL with S5T, E30D, H38Q
notes: also called 211F3 cl1A
B4: murine monoclonal antibody 205H8 (hybridoma CNCM I-3921) (antibody, mouse IgG3, V domains shown)
VH: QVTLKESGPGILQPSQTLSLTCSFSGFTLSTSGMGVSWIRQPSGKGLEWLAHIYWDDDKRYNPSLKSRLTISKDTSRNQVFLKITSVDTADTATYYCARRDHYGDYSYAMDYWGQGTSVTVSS
VL: DIVMTQSQKFMSTSEGDRVSITCKASQNVGIAVAWYQQKPGQSPKLLIYSASNRYTGVPDRFTGSGSGTDFTLTISNMQSEDLADYFCQQYSSNPTFGAGTKLELK
notes: also called 205H8 cl1A
B5: chimeric antibody c203B6[IgG1] (antibody, V domains shown)
VH: B2 VH
VL: DIVLSQSPASLALSLGQRATISCRASASVEYYGTSLMHWYQQKPGQPPKLLIYEASNVESGVPARFSGSGSGTDFSLNIHPVEEDDLAIYFCQQSRKAPYTFGGGTKLEIKR
notes: Variable domains of murine 203B6 fused to human Ckappa and human IgG1 constant domains; made in HEK293/EBNA cells; VL' and 'IgG1 Chim
B6: chimeric antibody c214B2[IgG1] (antibody, V domains shown)
VH: B1 VH
VL: NIVMTQSPKSMSMSVGERVTLSCKASENVGTYVSWYQQKPEQSPKLLIYGASNRYTGVPDRFTGSGSATDFTLTISSVQAEDLADYHCGQTYSFPYTFGGGTKLEIKR
notes: Variable domains of murine 214B2 fused to human Ckappa and human IgG1 constant domains; made in HEK293/EBNA cells; VL' and 'IgG1 Chim

This note sets out measurements from patent publication US20100150902A1 (published 2010).

Positions count from the first letter of the chain named.

The first experiment has as its target T1, human CD151 protein. Put plainly: flow cytometry, 10 µg/ml antibody on A549 cells. (In general: Flow cytometry measures light scatter and fluorescence of single cells or particles in a stream.)
Experimental: (§1) The flow cytometry analyses are carried out on 96-well plates. The undiluted hybridoma supernatants are added to 100000 PC3 cells previously introduced into the wells. After incubation for 20 minutes at +4° C. followed by washing, an Alexa488-labelled goat anti-mouse IgG polyclonal antibody (Molecular Probes, dilution to 1/500) is added. The fluorescence intensity (MFI) is determined with the aid of a cytofluorimeter after further incubation for 20 minutes at +4° C.
(§2) The isotypes of the antibodies produced were determined for each culture supernatant using a murine antibody isotyping kit (SBA clonotyping system, Southern Biotech), and then final characterisation was carried out by ELISA (extracellular loop EC2) and by flow cytometry on the murine line NIH 3T3 and the stable transfectant NIH 3T3-CD151, and then on human tumour lines of lung cancer A549, prostate cancer DU145 and pancreatic cancer BxPC3 under the conditions previously described. The antibody concentration of the supernatants was adjusted to 5 μg/ml for the ELISA and to 10 μg/ml for the flow cytometry analyses.
Consider B1, for which the MFI was found to be 820 MFI.

The molecule B2 returned an MFI of 675 MFI.

The molecule B3 registered an MFI of 481 MFI.

In turn, B4 gave an MFI of 388 MFI.

A further experiment deals with T1, human CD151 protein. Nature of the experiment: flow cytometry, undiluted hybridoma supernatant on PC3 cells.
Experimental: as §1
In turn, B1 came in with an MFI of 1000 MFI.

With B2, the MFI worked out at 975 MFI.

With B3, the MFI amounted to 936 MFI.

In the case of B4, the MFI came out at 595 MFI.

Another experiment addresses T1, human CD151 protein. Put plainly: flow cytometry, 10 µg/ml antibody on NIH3T3-CD151 transfectant cells.
Experimental: as §1, §2
In the case of B1, the MFI was 748 MFI.

B2: the MFI stood at 540 MFI.

B3 displayed an MFI of 556 MFI.

As to B4, the MFI turned out to be 332 MFI.

The target of a further experiment is T1, human CD151 protein. Nature of the experiment: flow cytometry, 10 µg/ml antibody on DU145 cells.
Experimental: as §1, §2
B1: the MFI turned out to be 1330 MFI.

In the case of B2, the MFI is 860 MFI.

B3 returned an MFI of 524 MFI.

The molecule B4 registered an MFI of 584 MFI.

Another experiment addresses T2, recombinant extracellular loop EC2 of …. Nature of the experiment: ELISA, undiluted hybridoma supernatant on coated recombinant EC2 loop (5 µg/ml). For orientation: In an ELISA, binding on a coated surface is turned into a signal by an enzyme label.
Experimental: (§3) For the ELISA, 96-well plates are sensitised for 1 night at +4° C. with the recombinant extracellular loop EC2 at 5 μg/ml in PBS. After washing with PBS, the wells are saturated with 0.5% gelatin solution in PBS for 1 hour at 37° C. and then washed again with PBS. The hybridoma culture supernatants are evaluated without dilution (incubation for 1 hour at 37° C.). The antibodies fixed to the immobilised EC2 loop are detected by successive incubation with a peroxidase-conjugated goat anti-mouse IgG polyclonal antibody (Jackson/USA, dilution to 1/5000, 1 hour at 37° C.) and then with a peroxidase substrate (TMB, Interchim/France, 10 minutes at ambient temperature). The reaction is stopped by addition of 1M sulfuric acid and the optical density (OD) is measured at 450 nm.
For B1, the “OD 450 nm” value came out at 0.684 OD 450 nm.

On to B2, for which the “OD 450 nm” value is 1.13 OD 450 nm.

As to B3, the “OD 450 nm” value is 0.959 OD 450 nm.

Turning to B4, the “OD 450 nm” value is 0.649 OD 450 nm.

The target in another experiment is T1, human CD151 protein. Nature of the experiment: flow cytometry, 10 µg/ml antibody on BxPC3 cells.
Experimental: as §1, §2
Turning to B1, the MFI came out at 849 MFI.

Regarding B2, the MFI was 768 MFI.

B3 had an MFI of 536 MFI.

As to B4, the MFI was 350 MFI.

The target of another experiment is T2, recombinant extracellular loop EC2 of …. Put plainly: competition ELISA on coated recombinant EC2; competitor murine 203B6 at 80 ng/ml, detected with anti-mouse IgG.
Experimental: (§4) Briefly, 96-well ELISA plates were coated with recombinant EC2 at 5 μg/ml in PBS overnight at 4° C. […] For control experiments, no murine antibody was added. Horseradish peroxidase-conjugated polyclonal goat anti-mouse IgG was added at a 1/5000 dilution in PBS and incubated for 1 h at 37° C. After incubation with the peroxidase substrate TMB for 10 min at room temperature, the reaction was stopped with 1 M sulfuric acid and the optical density at 450 nm was measured.
In general, IC50 refers to the point on the concentration scale where inhibition reaches its midpoint. As to B5, the IC50 stood at 0.71 mg/L.

The target is the same in a further experiment. Put plainly: ELISA, clone supernatant at 5 µg/ml antibody on coated recombinant EC2 loop.
Experimental: as §3
The antibody concentration of the supernatants was adjusted to 5 μg/ml for the ELISA and to 10 μg/ml for the flow cytometry analyses.
Take B1: the “OD at 450 nm” value is 2.48 OD at 450 nm.

Consider B2, for which the “OD at 450 nm” value amounted to 2.22 OD at 450 nm.

Take B3: the “OD at 450 nm” value was found to be 2.3 OD at 450 nm.

On to B4, for which the “OD at 450 nm” value is 1.84 OD at 450 nm.

The next experiment has the same target. Nature of the experiment: competition ELISA on coated recombinant EC2; competitor murine 214B2 at 80 ng/ml, detected with anti-mouse IgG.
Experimental: as §4
For B6, the 50% inhibitory concentration (IC50) is 0.69 mg/L.

Another experiment deals with T1, human CD151 protein. Put plainly: saturation binding of 125I-labelled antibody to PC3 cells, 1 hour at 4°C, Scatchard analysis.
Experimental: The affinity of the 2 radiolabelled antibodies for their CD151 target on the cell surface was then measured for PC3 prostate cancer cells. The dissociation constant KD of the antibodies was determined by the method of Scatchard. […] After incubation, the total radioactivity associated with the cells (fixed radiolabelled antibody) was measured using a gamma counter. The non-specific fixing was determined, for each concentration tested, in the presence of an excess of non-radiolabelled antibody (×100). The specific fixing is calculated by subtracting the non-specific radioactivity from the total radioactivity.
In general, Kd refers to the free concentration of one partner at which half of the binding sites on the other are occupied at equilibrium, for simple one-to-one binding. Low readings indicate a tighter complex, high ones a looser complex. Regarding B1, the affinity, expressed as Kd, was 6.38 nM.

Consider B2, for which the affinity, expressed as Kd, was 12.8 nM.
